Results published in paper PMC5057122, “Arabidopsis aldehyde dehydrogenase 10 family members confer salt tolerance through putrescine-derived 4-aminobutyrate (GABA) production” (Scientific Reports, 2016).
One block for each molecule: values may come before it.

Assays:
AtALDH10A8 = biological target: T1, AtALDH10A8 (Arabidopsis thaliana, UniProt Q9S795); experiment: NADH formation at […] nm, substrate-inhibition Michaelis-Menten fit; assay type: biochemical; settings: substrate inhibition (partial); 100 μM NAD+, pH 8.5, room temperature; apparent
T1 construct: gene ALDH10A8
T1 sequence (Q9S795 1-501): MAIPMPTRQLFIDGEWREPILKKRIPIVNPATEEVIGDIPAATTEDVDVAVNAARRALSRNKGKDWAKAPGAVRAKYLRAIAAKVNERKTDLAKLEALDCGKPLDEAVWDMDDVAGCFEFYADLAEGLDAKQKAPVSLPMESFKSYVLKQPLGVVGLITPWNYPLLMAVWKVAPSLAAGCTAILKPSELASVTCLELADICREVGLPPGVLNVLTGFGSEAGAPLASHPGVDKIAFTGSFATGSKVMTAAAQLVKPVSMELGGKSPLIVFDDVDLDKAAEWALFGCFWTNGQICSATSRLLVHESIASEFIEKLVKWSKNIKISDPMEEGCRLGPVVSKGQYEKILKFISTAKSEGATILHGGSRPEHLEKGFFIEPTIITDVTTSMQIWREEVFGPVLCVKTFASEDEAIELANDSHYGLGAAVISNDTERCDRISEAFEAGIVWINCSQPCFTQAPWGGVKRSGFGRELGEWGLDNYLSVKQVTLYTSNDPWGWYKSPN

AtALDH10A9 = biological target: T2, AtALDH10A9 (Arabidopsis thaliana, UniProt Q9STS1); experiment: as above; assay type: biochemical; settings: 500 μM NAD+, pH 9.5, room temperature, apparent
T2 construct: gene ALDH10A9
T2 sequence (Q9STS1 1-503): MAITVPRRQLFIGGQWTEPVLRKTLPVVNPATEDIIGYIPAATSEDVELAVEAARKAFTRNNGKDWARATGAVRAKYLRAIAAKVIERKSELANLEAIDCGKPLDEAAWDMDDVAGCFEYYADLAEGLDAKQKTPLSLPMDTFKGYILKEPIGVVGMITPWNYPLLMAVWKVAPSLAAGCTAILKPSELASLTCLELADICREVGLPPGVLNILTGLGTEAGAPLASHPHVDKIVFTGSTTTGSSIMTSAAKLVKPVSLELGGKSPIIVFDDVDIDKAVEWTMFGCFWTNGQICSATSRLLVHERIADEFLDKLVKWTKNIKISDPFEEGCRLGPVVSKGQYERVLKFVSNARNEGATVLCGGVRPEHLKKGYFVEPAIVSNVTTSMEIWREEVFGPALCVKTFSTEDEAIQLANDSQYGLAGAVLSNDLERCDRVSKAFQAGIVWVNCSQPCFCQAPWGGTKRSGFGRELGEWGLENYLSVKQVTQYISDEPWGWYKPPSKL

purified protein [1] = substrate: NCCCC=O; experiment: purified protein; assay type: biochemical, Arabidopsis thaliana; settings: apparent
purified protein [2] = substrate: NCCC=O; experiment: purified protein; assay type: biochemical, Arabidopsis thaliana; settings: apparent
purified protein [3] = substrate: NC(=O)c1ccc[n+]([C@@H]2O[C@H](COP(=O)(O)OP(=O)(O)OC[C@H]3O[C@@H](n4cnc5c(N)ncnc54)[C@H](O)[C@@H]3O)[C@@H](O)[C@H]2O)c1; experiment: purified protein; assay type: biochemical, Arabidopsis thaliana; settings: apparent, varied: cofactor
[4] = 100 μM NAD+, pH 8.5, room temperature
[5] = co-substrate 7 μM APAL (subsaturating), pH 8.5, room temperature
[6] = 500 μM NAD+, pH 9.5, room temperature
[7] = co-substrate 30 μM APAL (subsaturating), pH 9.5, room temperature

AtALDH10A8 / Kis (AtALDH10A8): 5.5 ± 0.3 µM
AtALDH10A9 / Kis (AtALDH10A9): 19000 ± 5800 µM
Molecule: NCCC=O [APAL]

AtALDH10A8 / Kis (AtALDH10A8): 55.7 ± 26.0 µM
AtALDH10A9 / Kis (AtALDH10A9): 2600 ± 750 µM
Molecule: NCCCC=O [ABAL]

B1: AtALDH10A8 (Arabidopsis thaliana) (protein)
chain: T1 sequence (Q9S795 1-501)
Km (purified protein [1]; [4]): 25.1 ± 2.5 µM
kcat/Km (purified protein [1]; [4]): 60000 M⁻¹ s⁻¹
Km (purified protein [2]; [4]): 14.4 ± 2.7 µM
kcat/Km (purified protein [2]; [4]): 1.03e+06 M⁻¹ s⁻¹
Km (purified protein [3]; [5]): 13.2 ± 1.5 µM
kcat/Km (purified protein [3]; [5]): 260000 M⁻¹ s⁻¹

B2: AtALDH10A9 (Arabidopsis thaliana) (protein)
chain: T2 sequence (Q9STS1 1-503)
Km (purified protein [1]; [6]): 460 ± 65 µM
kcat/Km (purified protein [1]; [6]): 20000 M⁻¹ s⁻¹
Km (purified protein [2]; [6]): 17.3 ± 4.1 µM
kcat/Km (purified protein [2]; [6]): 820000 M⁻¹ s⁻¹
Km (purified protein [3]; [7]): 86 ± 16 µM
kcat/Km (purified protein [3]; [7]): 150000 M⁻¹ s⁻¹
